From the supplement of paper PMC9112550, “Optimization of the antimicrobial peptide Bac7 by deep mutational scanning” (BMC Biology, 2022)

Test system: Escherichia coli TOP10
Test: shrunken log2 fold change of peptide-encoding DNA abundance (4.5 h post-induction vs induction); higher = less antimicrobial activity (less host growth inhibition)
Conditions: time post-induction: 4.5 h; library: site-saturation at positions 5, 18, 19, 20
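Also: peptides expressed intracellularly from a pBAD plasmid library in pooled LB shake-flask culture, induced with 0.3% L-arabinose, DNA abundance read by NGS, three biological replicates, DESeq2 with apeglm shrinkage.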

Sequence	shrunken log2 fold change
RRIRPRPPRLPRPRPRPKQKPRP	0.123
RRIRYRPPRLPRPRPRPHAVPRP	-0.4
RRIRKRPPRLPRPRPRPALVPRP	0.623
RRIRYRPPRLPRPRPRPYCCPRP	-0.145
RRIRCRPPRLPRPRPRPWFLPRP	-0.479
RRIRQRPPRLPRPRPRPLCEPRP	-0.0868
RRIRDRPPRLPRPRPRPESFPRP	-0.0579
RRIRLRPPRLPRPRPRPQDHPRP	-0.203
RRIRTRPPRLPRPRPRPTESPRP	-0.0539
RRIRGRPPRLPRPRPRPATRPRP	0.94
RRIRTRPPRLPRPRPRPSYPPRP	-1.08
RRIRWRPPRLPRPRPRPSRSPRP	0.0592
RRIRWRPPRLPRPRPRPFFAPRP	0.367
RRIRKRPPRLPRPRPRPDLGPRP	0.0986
RRIRNRPPRLPRPRPRPLHTPRP	0.0669
RRIRKRPPRLPRPRPRPNCQPRP	-0.263
RRIRRRPPRLPRPRPRPGNHPRP	0.0323
RRIRLRPPRLPRPRPRPAKCPRP	-0.0859
RRIRCRPPRLPRPRPRPVHWPRP	-0.21
RRIRQRPPRLPRPRPRPNRDPRP	-0.178
RRIRFRPPRLPRPRPRPNDWPRP	-0.271
RRIRDRPPRLPRPRPRPTCLPRP	0.653
RRIRARPPRLPRPRPRPFMKPRP	0.528
RRIRHRPPRLPRPRPRPRYLPRP	-0.0229
RRIRMRPPRLPRPRPRPSQEPRP	0.226

Sequence	shrunken log2 fold change
RRIRTRPPRLPRPRPRPLNPPRP	-0.19
RRIRWRPPRLPRPRPRPHWKPRP	-0.018
RRIRNRPPRLPRPRPRPTDAPRP	-0.15
RRIRGRPPRLPRPRPRPTGSPRP	0.864
RRIRWRPPRLPRPRPRPVRCPRP	0.418
RRIRCRPPRLPRPRPRPATLPRP	-0.154
RRIRSRPPRLPRPRPRPWSGPRP	-0.0339
RRIRDRPPRLPRPRPRPAPPPRP	0.71
RRIRNRPPRLPRPRPRPNLWPRP	0.315
RRIRERPPRLPRPRPRPGRPPRP	0.164
RRIRVRPPRLPRPRPRPLTPPRP	0.758
RRIRIRPPRLPRPRPRPAMKPRP	-0.0563
RRIRVRPPRLPRPRPRPKINPRP	-0.18
RRIRKRPPRLPRPRPRPWWNPRP	0.0316
RRIRLRPPRLPRPRPRPPCMPRP	-0.0839
RRIRCRPPRLPRPRPRPWKYPRP	-0.0802
RRIRMRPPRLPRPRPRPHSTPRP	0.126
RRIRHRPPRLPRPRPRPREAPRP	-0.0215
RRIRMRPPRLPRPRPRPVSRPRP	0.796
RRIRDRPPRLPRPRPRPHCMPRP	-0.24
RRIRVRPPRLPRPRPRPLRFPRP	0.571
RRIRVRPPRLPRPRPRPPIRPRP	-0.0403
RRIRKRPPRLPRPRPRPKVRPRP	0.131
RRIRIRPPRLPRPRPRPCCEPRP	-0.731
RRIRVRPPRLPRPRPRPHMMPRP	-0.659

Sequence	shrunken log2 fold change
RRIRLRPPRLPRPRPRPAVNPRP	-0.0174
RRIRDRPPRLPRPRPRPENAPRP	0.37
RRIRWRPPRLPRPRPRPILNPRP	-0.362
RRIRNRPPRLPRPRPRPVICPRP	-0.102
RRIRIRPPRLPRPRPRPWCQPRP	-0.339
RRIRERPPRLPRPRPRPSSIPRP	-0.855
RRIRLRPPRLPRPRPRPPTFPRP	0.00353
RRIRWRPPRLPRPRPRPCFNPRP	-0.382
RRIRLRPPRLPRPRPRPTAVPRP	0.0335
RRIRHRPPRLPRPRPRPGSGPRP	0.0563
RRIRWRPPRLPRPRPRPSCEPRP	0.19
RRIRIRPPRLPRPRPRPCYQPRP	-0.44
RRIRCRPPRLPRPRPRPWYTPRP	-0.739
RRIRPRPPRLPRPRPRPARNPRP	0.328
RRIRTRPPRLPRPRPRPTTWPRP	-0.0444
RRIRIRPPRLPRPRPRPFGAPRP	-0.143
RRIRVRPPRLPRPRPRPPHNPRP	0.154
RRIRERPPRLPRPRPRPASRPRP	0.0348
RRIRLRPPRLPRPRPRPRTQPRP	0.0772
RRIRKRPPRLPRPRPRPHDDPRP	0.171
RRIRYRPPRLPRPRPRPWHQPRP	-0.883
RRIRPRPPRLPRPRPRPMNSPRP	-0.125
RRIRQRPPRLPRPRPRPHNGPRP	-0.072
RRIRLRPPRLPRPRPRPFTHPRP	-0.342
RRIRVRPPRLPRPRPRPETAPRP	0.406

Sequence	shrunken log2 fold change
RRIRSRPPRLPRPRPRPQICPRP	-0.0872
RRIRHRPPRLPRPRPRPRMNPRP	-0.197
RRIRARPPRLPRPRPRPAVHPRP	0.175
RRIRARPPRLPRPRPRPGKLPRP	0.149
RRIRERPPRLPRPRPRPAKDPRP	-0.284
RRIRYRPPRLPRPRPRPFRPPRP	-0.0325
RRIRRRPPRLPRPRPRPFEQPRP	0.105
RRIRKRPPRLPRPRPRPKALPRP	1.8
RRIRVRPPRLPRPRPRPESPPRP	0.232
RRIRFRPPRLPRPRPRPIMDPRP	-0.212
RRIRARPPRLPRPRPRPRRQPRP	0.453
RRIRMRPPRLPRPRPRPSYCPRP	-0.236
RRIRWRPPRLPRPRPRPQPWPRP	0.363
RRIRMRPPRLPRPRPRPAGDPRP	0.882
RRIRPRPPRLPRPRPRPHTSPRP	-0.622
RRIRLRPPRLPRPRPRPAILPRP	0.0331
RRIRIRPPRLPRPRPRPAWMPRP	0.0797
RRIRMRPPRLPRPRPRPFADPRP	2.11
RRIRQRPPRLPRPRPRPMKGPRP	0.0391
RRIRSRPPRLPRPRPRPNCNPRP	-0.473
RRIRYRPPRLPRPRPRPIQPPRP	0.00143
RRIRSRPPRLPRPRPRPHITPRP	-0.734
RRIRNRPPRLPRPRPRPCTCPRP	-0.0075
RRIRDRPPRLPRPRPRPNMMPRP	0.0387
RRIRGRPPRLPRPRPRPRKLPRP	0.86

Sequence	shrunken log2 fold change
RRIRARPPRLPRPRPRPNDHPRP	-0.0473
RRIRNRPPRLPRPRPRPKGCPRP	-0.0382
RRIRHRPPRLPRPRPRPQSDPRP	0.0136
RRIRTRPPRLPRPRPRPNEHPRP	-0.198
RRIRPRPPRLPRPRPRPKPLPRP	0.567
RRIRYRPPRLPRPRPRPLPSPRP	-0.14
RRIRARPPRLPRPRPRPECAPRP	1.5
RRIRTRPPRLPRPRPRPDWSPRP	0.163
RRIRTRPPRLPRPRPRPCYAPRP	-0.215
RRIRYRPPRLPRPRPRPSKCPRP	-0.00419
RRIRMRPPRLPRPRPRPGWGPRP	1.2
RRIRWRPPRLPRPRPRPPWPPRP	0.503
RRIRLRPPRLPRPRPRPDSKPRP	-0.24
RRIRDRPPRLPRPRPRPSHEPRP	-0.0403
RRIRDRPPRLPRPRPRPCAGPRP	0.0969
RRIRRRPPRLPRPRPRPFVIPRP	-0.0863
RRIRWRPPRLPRPRPRPLGPPRP	0.478
RRIRWRPPRLPRPRPRPMMNPRP	-0.238
RRIRKRPPRLPRPRPRPDEIPRP	0.0203
RRIRHRPPRLPRPRPRPEATPRP	0.0573
RRIRGRPPRLPRPRPRPKGVPRP	0.123
RRIRSRPPRLPRPRPRPQYYPRP	-0.29
RRIRSRPPRLPRPRPRPPCHPRP	-0.0302
RRIRLRPPRLPRPRPRPEHLPRP	-0.118
RRIRSRPPRLPRPRPRPSCIPRP	-0.223
